From publication PMC9482650, “Quantitative fragmentomics allow affinity mapping of interactomes” (Nature Communications, 2022)

T1: APBA2_2, Q99767
T1 sequence (Q99767 654-744, limits assumed, looked up): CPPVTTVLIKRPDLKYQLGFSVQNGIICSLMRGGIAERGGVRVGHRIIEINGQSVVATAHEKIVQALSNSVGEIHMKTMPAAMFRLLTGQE

T2: LRRC7, Q96NW7
T2 sequence (Q96NW7 1440-1537, limits assumed, looked up): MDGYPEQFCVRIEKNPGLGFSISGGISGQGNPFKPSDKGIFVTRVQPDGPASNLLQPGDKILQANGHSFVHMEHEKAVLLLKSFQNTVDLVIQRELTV

T3: FRMPD1, Q5SYB0
T3 sequence (Q5SYB0 52-145, limits assumed, looked up): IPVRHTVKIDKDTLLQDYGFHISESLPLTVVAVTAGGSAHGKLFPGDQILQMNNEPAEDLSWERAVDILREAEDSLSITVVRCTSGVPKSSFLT

T4: GRIP1_3, Q9Y3R0
T4 sequence (Q9Y3R0 247-346, limits assumed, looked up): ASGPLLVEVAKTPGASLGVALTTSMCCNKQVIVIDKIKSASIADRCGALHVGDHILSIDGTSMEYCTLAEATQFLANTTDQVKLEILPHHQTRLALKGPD

T5: NHERF3_4, Q5T2W1
T5 sequence (Q5T2W1 373-468, limits assumed, looked up): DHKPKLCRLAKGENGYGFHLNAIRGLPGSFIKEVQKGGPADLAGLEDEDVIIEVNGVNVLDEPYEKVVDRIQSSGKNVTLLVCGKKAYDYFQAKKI

T6: ARHGAP21, Q5T5U3
T6 sequence (Q5T5U3 45-169, limits assumed, looked up): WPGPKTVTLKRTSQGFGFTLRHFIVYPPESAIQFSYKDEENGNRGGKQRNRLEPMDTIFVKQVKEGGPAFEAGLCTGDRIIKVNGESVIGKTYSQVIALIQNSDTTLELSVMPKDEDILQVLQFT

T7: PDZD7_3, Q9H5P4
T7 sequence (Q9H5P4 857-944, limits assumed, looked up): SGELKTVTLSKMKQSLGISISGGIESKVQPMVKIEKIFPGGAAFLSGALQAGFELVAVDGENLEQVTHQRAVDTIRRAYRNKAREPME

T8: TJP3_3, O95049
T8 sequence (O95049 375-456, limits assumed, looked up): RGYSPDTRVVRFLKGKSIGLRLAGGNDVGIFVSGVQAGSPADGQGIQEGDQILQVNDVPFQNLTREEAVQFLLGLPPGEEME

T9: PDZD2_2, O15018
T9 sequence (O15018 329-429, limits assumed, looked up): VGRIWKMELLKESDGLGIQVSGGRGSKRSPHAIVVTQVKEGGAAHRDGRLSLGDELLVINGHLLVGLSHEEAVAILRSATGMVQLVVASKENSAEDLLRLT

T10: NHERF3_3, Q5T2W1
T10 sequence (Q5T2W1 238-333, limits assumed, looked up): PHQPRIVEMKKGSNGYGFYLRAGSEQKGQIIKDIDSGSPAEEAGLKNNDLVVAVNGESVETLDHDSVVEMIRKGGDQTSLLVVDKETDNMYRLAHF

T11: APBA2_1, Q99767
T11 sequence (Q99767 563-664, limits assumed, looked up): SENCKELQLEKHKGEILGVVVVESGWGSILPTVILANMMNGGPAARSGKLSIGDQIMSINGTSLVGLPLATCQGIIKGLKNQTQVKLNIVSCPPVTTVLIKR

T12: HTRA3, P83110
T12 sequence (P83110 354-453, limits assumed, looked up): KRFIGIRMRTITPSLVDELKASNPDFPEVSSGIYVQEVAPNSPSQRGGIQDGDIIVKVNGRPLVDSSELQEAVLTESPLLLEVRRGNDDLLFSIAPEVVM

T13: LNX2_3, Q8N448
T13 sequence (Q8N448 463-564, limits assumed, looked up): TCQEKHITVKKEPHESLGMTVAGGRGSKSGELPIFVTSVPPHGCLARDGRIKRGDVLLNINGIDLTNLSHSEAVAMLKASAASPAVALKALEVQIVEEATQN


Tests used:
Assay in all cases: holdup assay
Design in all cases: key: below the threshold = too weak to quantify, mostly under pKd 3.1 to 4
Details in all cases: plain residues with an end cap or a label only (N-terminal biotin on a linker: ado-ado)
APBA2_2, Q99767 = biological target: T1, APBA2_2, Q99767
LRRC7, Q96NW7 = biological target: T2, LRRC7, Q96NW7
Inadl_9, Q8NI35 = biological target: Inadl_9, Q8NI35
DLG1_1, Q12959 = biological target: DLG1_1, Q12959
FRMPD1, Q5SYB0 = biological target: T3, FRMPD1, Q5SYB0
DLG2_3, Q15700 = biological target: DLG2_3, Q15700
GRIP1_3, Q9Y3R0 = biological target: T4, GRIP1_3, Q9Y3R0
FRMPD3, Q5JV73 = biological target: FRMPD3, Q5JV73
NHERF3_4, Q5T2W1 = biological target: T5, NHERF3_4, Q5T2W1
LNX1_1, Q8TBB1 = biological target: LNX1_1, Q8TBB1
ARHGAP21, Q5T5U3 = biological target: T6, ARHGAP21, Q5T5U3
PDZD7_3, Q9H5P4 = biological target: T7, PDZD7_3, Q9H5P4
Inadl_3, Q8NI35 = biological target: Inadl_3, Q8NI35
IL16_3, Q14005 = biological target: IL16_3, Q14005
TJP3_3, O95049 = biological target: T8, TJP3_3, O95049
PDZD2_2, O15018 = biological target: T9, PDZD2_2, O15018
MAST1, Q9Y2H9 = biological target: MAST1, Q9Y2H9
NHERF3_3, Q5T2W1 = biological target: T10, NHERF3_3, Q5T2W1
Inadl_5, Q8NI35 = biological target: Inadl_5, Q8NI35
APBA2_1, Q99767 = biological target: T11, APBA2_1, Q99767
GRIP2_7, Q9C0E4 = biological target: GRIP2_7, Q9C0E4
HTRA3, P83110 = biological target: T12, HTRA3, P83110
LNX2_3, Q8N448 = biological target: T13, LNX2_3, Q8N448
TJP1_3, Q07157 = biological target: TJP1_3, Q07157
GOPC, Q9HD26 = biological target: GOPC, Q9HD26

GRIP2_7, Q9C0E4, sequence (Q9C0E4 934-1023): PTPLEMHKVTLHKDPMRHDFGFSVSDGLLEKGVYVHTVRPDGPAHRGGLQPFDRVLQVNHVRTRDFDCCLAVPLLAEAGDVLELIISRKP
FRMPD3, Q5JV73, sequence (Q5JV73 12-100): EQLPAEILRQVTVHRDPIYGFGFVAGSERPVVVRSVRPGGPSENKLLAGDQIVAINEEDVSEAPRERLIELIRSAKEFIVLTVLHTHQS
Inadl_5, Q8NI35, sequence (Q8NI35 673-780): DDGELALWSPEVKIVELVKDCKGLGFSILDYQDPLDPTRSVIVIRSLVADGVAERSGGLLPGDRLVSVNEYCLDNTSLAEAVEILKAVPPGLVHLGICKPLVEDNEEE
MAST1, Q9Y2H9, sequence (Q9Y2H9 962-1065): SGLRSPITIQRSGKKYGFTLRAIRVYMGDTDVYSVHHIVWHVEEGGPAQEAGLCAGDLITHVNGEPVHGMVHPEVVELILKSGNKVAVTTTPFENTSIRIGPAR
IL16_3, Q14005, sequence (Q14005 1107-1207): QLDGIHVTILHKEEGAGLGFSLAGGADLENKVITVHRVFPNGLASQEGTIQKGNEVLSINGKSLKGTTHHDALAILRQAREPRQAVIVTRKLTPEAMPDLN
TJP1_3, Q07157, sequence (Q07157 416-512): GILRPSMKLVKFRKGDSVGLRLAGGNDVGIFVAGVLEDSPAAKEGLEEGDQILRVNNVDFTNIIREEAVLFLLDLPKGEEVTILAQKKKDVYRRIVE
Inadl_9, Q8NI35, sequence (Q8NI35 1530-1615): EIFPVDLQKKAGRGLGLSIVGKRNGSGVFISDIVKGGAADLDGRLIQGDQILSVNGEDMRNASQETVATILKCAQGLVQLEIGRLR
Inadl_3, Q8NI35, sequence (Q8NI35 359-469): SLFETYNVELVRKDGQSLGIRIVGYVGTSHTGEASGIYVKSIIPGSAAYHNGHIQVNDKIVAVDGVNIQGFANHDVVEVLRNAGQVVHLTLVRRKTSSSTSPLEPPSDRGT
LNX1_1, Q8TBB1, sequence (Q8TBB1 261-371): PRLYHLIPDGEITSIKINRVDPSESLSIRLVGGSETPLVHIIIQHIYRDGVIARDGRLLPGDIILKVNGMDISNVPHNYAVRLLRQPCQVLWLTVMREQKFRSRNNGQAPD

| Binder | pKd (APBA2_2, Q99767) | pKd (LRRC7, Q96NW7) | pKd (Inadl_9, Q8NI35) | pKd (DLG1_1, Q12959) | pKd (FRMPD1, Q5SYB0) | pKd (DLG2_3, Q15700) | pKd (GRIP1_3, Q9Y3R0) | pKd (FRMPD3, Q5JV73) | pKd (NHERF3_4, Q5T2W1) | pKd (LNX1_1, Q8TBB1) | pKd (ARHGAP21, Q5T5U3) | pKd (PDZD7_3, Q9H5P4) | pKd (Inadl_3, Q8NI35) | pKd (IL16_3, Q14005) | pKd (TJP3_3, O95049) | pKd (PDZD2_2, O15018) | pKd (MAST1, Q9Y2H9) | pKd (NHERF3_3, Q5T2W1) | pKd (Inadl_5, Q8NI35) | pKd (APBA2_1, Q99767) | further results |
| --- | --- | --- | --- | --- | --- | --- | --- | --- | --- | --- | --- | --- | --- | --- | --- | --- | --- | --- | --- | --- | --- |
| TNSKQGETTV [FZD1, Q9UP38] | below the threshold | below the threshold | 3.57 | 4.61 | below the threshold | 3.77 | below the threshold | below the threshold | below the threshold | below the threshold | 3.93 | 4.53 | below the threshold | below the threshold | below the threshold | 3.93 | 4.32 | below the threshold | 3.5 | below the threshold | pKd (GRIP2_7, Q9C0E4): below the threshold; pKd (HTRA3, P83110): below the threshold; pKd (LNX2_3, Q8N448): below the threshold; pKd (TJP1_3, Q07157): 3.69; pKd (GOPC, Q9HD26): 3.67 |
| TFSRRPKTRV [CD226, Q15762] | below the threshold | below the threshold | below the threshold | below the threshold | below the threshold | 3.88 | below the threshold | below the threshold | below the threshold | 3.9 | 4.06 | 4.5 | below the threshold | below the threshold | below the threshold | below the threshold | 4.24 | 3.63 | below the threshold | 3.55 | pKd (GRIP2_7, Q9C0E4): below the threshold; pKd (HTRA3, P83110): below the threshold; pKd (LNX2_3, Q8N448): 3.61; pKd (TJP1_3, Q07157): below the threshold; pKd (GOPC, Q9HD26): 4.56 |
| IQISELETNV [SLC1A7, O00341] | below the threshold | below the threshold | below the threshold | 4.34 | below the threshold | below the threshold | below the threshold | below the threshold | below the threshold | 3.91 | 3.98 | 4.85 | 4 | below the threshold | below the threshold | 4.97 | 4.71 | below the threshold | below the threshold | below the threshold | pKd (GRIP2_7, Q9C0E4): below the threshold; pKd (HTRA3, P83110): below the threshold; pKd (LNX2_3, Q8N448): below the threshold; pKd (TJP1_3, Q07157): below the threshold; pKd (GOPC, Q9HD26): below the threshold |

Continued, in another order:

| pKd (APBA2_2, Q99767) | pKd (LRRC7, Q96NW7) | pKd (Inadl_9, Q8NI35) | pKd (DLG1_1, Q12959) | pKd (FRMPD1, Q5SYB0) | pKd (DLG2_3, Q15700) | pKd (GRIP1_3, Q9Y3R0) | pKd (FRMPD3, Q5JV73) | pKd (NHERF3_4, Q5T2W1) | pKd (LNX1_1, Q8TBB1) | pKd (ARHGAP21, Q5T5U3) | pKd (PDZD7_3, Q9H5P4) | pKd (Inadl_3, Q8NI35) | pKd (IL16_3, Q14005) | pKd (TJP3_3, O95049) | pKd (PDZD2_2, O15018) | pKd (MAST1, Q9Y2H9) | pKd (NHERF3_3, Q5T2W1) | pKd (Inadl_5, Q8NI35) | pKd (APBA2_1, Q99767) | Binder | further results |
| --- | --- | --- | --- | --- | --- | --- | --- | --- | --- | --- | --- | --- | --- | --- | --- | --- | --- | --- | --- | --- | --- |
| below the threshold | below the threshold | below the threshold | 3.71 | below the threshold | below the threshold | below the threshold | below the threshold | below the threshold | below the threshold | 4.14 | below the threshold | below the threshold | below the threshold | below the threshold | 3.59 | below the threshold | below the threshold | below the threshold | below the threshold | KSRPENGTVC [TMEM178B, H3BS89] | pKd (GRIP2_7, Q9C0E4): below the threshold; pKd (HTRA3, P83110): 4.44; pKd (LNX2_3, Q8N448): below the threshold; pKd (TJP1_3, Q07157): below the threshold; pKd (GOPC, Q9HD26): below the threshold |
| below the threshold | below the threshold | below the threshold | below the threshold | below the threshold | below the threshold | below the threshold | below the threshold | below the threshold | below the threshold | 4 | 3.9 | below the threshold | below the threshold | below the threshold | 3.55 | below the threshold | below the threshold | below the threshold | below the threshold | QQGLLPHSSC [TYRO3, Q06418] | pKd (GRIP2_7, Q9C0E4): below the threshold; pKd (HTRA3, P83110): below the threshold; pKd (LNX2_3, Q8N448): below the threshold; pKd (TJP1_3, Q07157): below the threshold; pKd (GOPC, Q9HD26): below the threshold |
